Values quoted from earlier work in article PMC13428679.
pKd: −log10 of the molar value.

What was measured:
[1] = biological target: Skp1 (Dictyostelium discoideum) (UniProt P52285)

Sequence of Fbs1 (Cavia porcellus) (Q80UW2 whole entry): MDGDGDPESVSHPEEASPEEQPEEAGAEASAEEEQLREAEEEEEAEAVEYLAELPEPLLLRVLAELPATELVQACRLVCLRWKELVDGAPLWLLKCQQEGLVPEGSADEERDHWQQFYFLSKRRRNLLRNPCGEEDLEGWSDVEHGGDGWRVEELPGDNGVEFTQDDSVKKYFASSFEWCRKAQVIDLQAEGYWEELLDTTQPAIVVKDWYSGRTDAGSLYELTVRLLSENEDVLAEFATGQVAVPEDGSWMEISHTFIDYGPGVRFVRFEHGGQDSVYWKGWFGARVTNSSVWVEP

Q: With Skp1 (from UniProt P52285) as the substance, how does the pKd [1] read?
A: The pKd was 5.60.

Q: With Skp1 (from UniProt P63208) as the substance, how does the pKd (Fbs1 (Cavia porcellus)) read?
A: Its pKd is 4.60.
